We go through 13 molecules from patent US20110158985A1 (published 2011).

“And” between values parts separate entries of the source, which are not always exact repeats. Equal values may be shown once. Read-outs that look alike come from different tables or passages of the source.

In assay [1] the target is T1, F protein of RSV (Long strain) (RSV (Long strain), UniProt P12568 26-574). Description: cell-based or functional assay.
The target of assay [2] is T2, recombinant C-terminally truncated RSV (A2 strain) F protein (RSV (A2 strain), UniProt P03420 26-524).
T2 construct: extracellular domain; also called truncated F protein; extracellular domain of the F protein from RSV A2
The experiment in a line: SPR (BIAcore), Fab over immobilised F.

The target in assay [3] is T2, recombinant C-terminally truncated RSV …. The experiment in a line: SPR (BIAcore), Fab over immobilised F. The source holds these as a separate data set.
Assay [4] deals with T1, F protein of RSV (Long strain). Description: cell-based or functional assay. This is another data set of the same source.
The next assay concerns the target RSV F protein (purified) (respiratory syncytial virus). The experiment in a line: SPR (BIAcore), F protein immobilised. (SPR reads the build-up and loss of mass on a sensor chip optically.)
Assay [5] deals with T2, recombinant C-terminally truncated RSV …. Description: SPR (BIAcore), Fab over immobilised F. The source holds these as a separate data set.
In another assay the target is T3, murine FcRn (mouse, UniProt P01887 21-119).
T3 construct: also called mouse FcRn; muFcRn
T3 sequence: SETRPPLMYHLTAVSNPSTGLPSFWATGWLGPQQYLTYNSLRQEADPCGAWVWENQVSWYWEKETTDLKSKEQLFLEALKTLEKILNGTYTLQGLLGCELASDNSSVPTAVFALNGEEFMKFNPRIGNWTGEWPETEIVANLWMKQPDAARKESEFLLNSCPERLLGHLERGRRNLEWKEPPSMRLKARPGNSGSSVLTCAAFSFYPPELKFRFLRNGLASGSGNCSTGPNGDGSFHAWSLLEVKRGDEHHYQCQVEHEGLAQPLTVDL
T3 sequence (b2m): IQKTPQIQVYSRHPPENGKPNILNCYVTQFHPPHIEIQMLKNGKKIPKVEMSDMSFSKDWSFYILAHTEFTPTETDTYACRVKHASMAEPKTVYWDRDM
The experiment in a line: SPR (BIAcore 3000), FcRn over immobilised IgG1, pH 6.0, Scatchard.

Method for murine FcRn: IgG1 variants was monitored by surface plasmon resonance detection using a BIAcore 3000 instrument (Pharmacia Biosensor, Uppsala, Sweden). […] The protein concentrations ranged from 3-5 μg/ml in 10 mM sodium acetate, pH 5.0. The activation period was set for 7 minutes at a flow rate of 10 μl/min and the immobilization period was set to between 10 and 20 minutes at a flow rate of 10 μl/min. […] Human and murine FcRn were buffer exchanged against 50 mM PBS buffer pH 6.0 containing 0.05% Tween 20. Dilutions were made in the same buffer. All binding experiments were performed at 25° C. with concentrations ranging from 120 to 1 μg/ml at a flow rate of 5 to 10 μl/min; data were collected for 25 to 50 minutes and three 1-minute pulses of PBS buffer pH 7.2 were used to regenerate the surfaces. FcRn was also flowed over an uncoated cell and the sensorgrams from these blank runs subtracted from those obtained with IgG1-coupled chips. Runs were analyzed using the software BIAevaluation 3.1 (Pharmacia). Association constants (KAs) were determined from Scatchard analysis by measuring the concentration of free reactants and complex at equilibrium after correction for nonspecific binding.

B1: S32A Fab (Fab, name in Kabat numbering, V domains shown)
VH: QVTLRESGPALVKPTQTLTLTCTFSGFSLSTAGMSVGWIRQPPGKALEWLADIWWDDKKDYNPSLKSRLTISKDTSKNQVVLKVTNMDPADTATYYCARSMITNWYFDVWGQGTTVTVSS
VL: DIQMTQSPSTLSASVGDRVTITCSASSSVGYMHWYQQKPGKAPKLLIYDTSKLASGVPSRFSGSGSGTEFTLTISSLQPDDFATYYCFQGSGYPFTFGGGTKVEIK
B1: the “Microneutralization IC50, Fab” value in assay [1] is 4.85 µg/ml and 97 nM. In addition, in assay [2], the Kd (usually a measure of binding affinity in units of concentration) was 0.47 nM; the koff (commonly the rate constant with which the complex falls apart) came out at 9.3e-05 s⁻¹; the on-rate (kon) (in general, the rate constant with which the complex forms) was 196000 M⁻¹ s⁻¹. For the same molecule, the “fold improvement in affinity over 493L1FR Fab” value in assay [3] lay in the range of 3 to 7 fold.

B2: AFFF(1) Fab (Fab, V domains shown)
VH: QVTLRESGPALVKPTQTLTLTCTFSGFSLSTAGMSVGWIRQPPGKALEWLADIWWDDKKDYNPSLKSRLTISKDTSKNQVVLKVTNMDPADTATYYCARSMITNFYFDVWGQGTTVTVSS
VL: DIQMTQSPSTLSASVGDRVTITCSASSSVGYMHWYQQKPGKAPKLLIYDTFKLASGVPSRFSGSGSGTEFTLTISSLQPDDFATYYCFQGSFYPFTFGGGTKVEIK
notes: also called AHH(1)
As for B2, the “Microneutralization IC50, Fab” value was 0.0715 µg/ml and 1.43 nM in assay [1]; 0.0715 µg/ml and 1.43 nM in assay [4]. In addition, the Kd in assay [2] and in assay [5] was at most 0.037 nM in each case. For the same molecule, the koff in assay [2] was at most 5e-06 s⁻¹; in the assay with RSV F protein (purified), 0.000245 s⁻¹ and 0.000446 s⁻¹ and 0.000268 s⁻¹; in assay [5], at most 5e-06 s⁻¹. Moreover, the kon in assay [2] is 134000 M⁻¹ s⁻¹; with RSV F protein (purified), 212000 M⁻¹ s⁻¹ and 156000 M⁻¹ s⁻¹ and 186000 M⁻¹ s⁻¹; in assay [5], 134000 M⁻¹ s⁻¹. In assay [3], the “fold higher affinity than palivizumab Fab” value was over 117 fold.

B3: A17f5 Fab (Fab, V domains shown)
VH: QVTLRESGPALVKPTQTLTLTCTFSGFSLSTAGMSVGWIRQPPGKALEWLADIWWDDKKDYNPSLKDRLTISKDTSKNQVVLKVTNMDPADTATYYCARDMIFNWYFDVWGQGTTVTVSS
VL: DIQMTQSPSTLSASVGDRVTITCSLSSRVGYMHWYQQKPGKAPKLLIYDTFRHTSGVPSRFSGSGSGTEFTLTISSLQPDDFATYYCFQGSGYPFTFGGGTKVEIK
As to B3, in assay [4], the “Microneutralization IC50, Fab” value is 0.106 µg/ml and 2.12 nM. Moreover, in assay [3], the “fold improvement in koff (against palivizumab Fab)” value turned out to be 8 fold and the “fold increase in kon over W100F” value amounted to 3 fold. Also, in assay [5], the Kd was determined as 0.154 nM, the koff is 8.4e-05 s⁻¹ and the kon is 544000 M⁻¹ s⁻¹.

B4: W100F Fab (Fab, name in Kabat numbering, V domains shown)
VH: QVTLRESGPALVKPTQTLTLTCTFSGFSLSTSGMSVGWIRQPPGKALEWLADIWWDDKKDYNPSLKSRLTISKDTSKNQVVLKVTNMDPADTATYYCARSMITNFYFDVWGQGTTVTVSS
VL: DIQMTQSPSTLSASVGDRVTITCSASSSVGYMHWYQQKPGKAPKLLIYDTSKLASGVPSRFSGSGSGTEFTLTISSLQPDDFATYYCFQGSGYPFTFGGGTKVEIK
Consider B4, for which, in assay [1], the “Microneutralization IC50, Fab” value is 2.6 µg/ml and 52 nM. In addition, in assay [2], the Kd was determined as 0.51 nM, the dissociation rate constant (koff) was 8.4e-05 s⁻¹ and the kon amounted to 165000 M⁻¹ s⁻¹. Also, the “fold improvement in koff (against palivizumab Fab)” value in assay [3] was found to be 8 fold.

B5: AFSF Fab (Fab, name in Kabat numbering, V domains shown)
VH: QVTLRESGPALVKPTQTLTLTCTFSGFSLSTAGMSVGWIRQPPGKALEWLADIWWDDKKDYNPSLKSRLTISKDTSKNQVVLKVTNMDPADTATYYCARSMITNFYFDVWGQGTTVTVSS
VL: DIQMTQSPSTLSASVGDRVTITCSASSSVGYMHWYQQKPGKAPKLLIYDTSKLASGVPSRFSGSGSGTEFTLTISSLQPDDFATYYCFQGSFYPFTFGGGTKVEIK
As to B5, the “Microneutralization IC50, Fab” value in assay [1] was 0.0908 µg/ml and 1.82 nM. Moreover, in assay [2], the Kd was at most 0.044 nM, the koff was at most 5e-06 s⁻¹ and the kon amounted to 113000 M⁻¹ s⁻¹. In assay [3], the “fold higher affinity than palivizumab Fab” value is over 117 fold.

B6: AFFY Fab (Fab, name in Kabat numbering, V domains shown)
VH: QVTLRESGPALVKPTQTLTLTCTFSGFSLSTAGMSVGWIRQPPGKALEWLADIWWDDKKDYNPSLKSRLTISKDTSKNQVVLKVTNMDPADTATYYCARSMITNFYFDVWGQGTTVTVSS
VL: DIQMTQSPSTLSASVGDRVTITCSASSSVGYMHWYQQKPGKAPKLLIYDTFKLASGVPSRFSGSGSGTEFTLTISSLQPDDFATYYCFQGSYYPFTFGGGTKVEIK
For the molecule B6, the “Microneutralization IC50, Fab” value in assay [1] is 0.0754 µg/ml and 1.51 nM. In assay [2], the Kd was at most 0.041 nM, the koff is at most 5e-06 s⁻¹ and the kon worked out at 122000 M⁻¹ s⁻¹. Moreover, the “fold higher affinity than palivizumab Fab” value in assay [3] is over 117 fold.

B7: G93F Fab (Fab, name in Kabat numbering, V domains shown)
VH: QVTLRESGPALVKPTQTLTLTCTFSGFSLSTSGMSVGWIRQPPGKALEWLADIWWDDKKDYNPSLKSRLTISKDTSKNQVVLKVTNMDPADTATYYCARSMITNWYFDVWGQGTTVTVSS
VL: DIQMTQSPSTLSASVGDRVTITCSASSSVGYMHWYQQKPGKAPKLLIYDTSKLASGVPSRFSGSGSGTEFTLTISSLQPDDFATYYCFQGSFYPFTFGGGTKVEIK
Regarding B7, the “Microneutralization IC50, Fab” value in assay [1] was 8.84 µg/ml and 177 nM. In addition, in assay [2], the Kd was found to be 1.07 nM, the koff is 0.000174 s⁻¹ and the kon was 163000 M⁻¹ s⁻¹. In addition, in assay [3], the “fold improvement in affinity over 493L1FR Fab” value fell in the range of 3 to 7 fold.

B8: PFFF Fab (Fab, name in Kabat numbering, V domains shown)
VH: QVTLRESGPALVKPTQTLTLTCTFSGFSLSTPGMSVGWIRQPPGKALEWLADIWWDDKKDYNPSLKSRLTISKDTSKNQVVLKVTNMDPADTATYYCARSMITNFYFDVWGQGTTVTVSS
VL: DIQMTQSPSTLSASVGDRVTITCSASSSVGYMHWYQQKPGKAPKLLIYDTFKLASGVPSRFSGSGSGTEFTLTISSLQPDDFATYYCFQGSFYPFTFGGGTKVEIK
B8: in assay [2], the Kd was at most 0.045 nM, the koff is at most 5e-06 s⁻¹ and the on-rate constant (kon) came to 110000 M⁻¹ s⁻¹. In assay [3], the “fold higher affinity than palivizumab Fab” value is over 117 fold.

B9: AFFG Fab (Fab, name in Kabat numbering, V domains shown)
VH: QVTLRESGPALVKPTQTLTLTCTFSGFSLSTAGMSVGWIRQPPGKALEWLADIWWDDKKDYNPSLKSRLTISKDTSKNQVVLKVTNMDPADTATYYCARSMITNFYFDVWGQGTTVTVSS
VL: DIQMTQSPSTLSASVGDRVTITCSASSSVGYMHWYQQKPGKAPKLLIYDTFKLASGVPSRFSGSGSGTEFTLTISSLQPDDFATYYCFQGSGYPFTFGGGTKVEIK
Take B9: the “Microneutralization IC50, Fab” value in assay [1] is 0.249 µg/ml and 4.98 nM. In assay [2], the Kd was at most 0.038 nM, the koff is at most 5e-06 s⁻¹ and the kon came out at 133000 M⁻¹ s⁻¹. For the same molecule, in assay [3], the “fold higher affinity than palivizumab Fab” value is over 117 fold.

B10: human IgG1 MEDI-493 (palivizumab) H433K/N434F/Y436H (antibody)
heavy: QVTLRESGPALVKPTQTLTLTCTFSGFSLSTSGMSVGWIRQPPGKALEWLADIWWDDKKDYNPSLKSRLTISKDTSKNQVVLKVTNMDPADTATYYCARSMITNWYFDVWGAGTTVTVSSASTKGPSVFPLAPSSKSTSGGTAALGCLVKDYFPEPVTVSWNSGALTSGVHTFPAVLQSSGLYSLSSVVTVPSSSLGTQTYICNVNHKPSNTKVDKRVEPKSCDKTHTCPPCPAPELLGGPSVFLFPPKPKDTLMISRTPEVTCVVVDVSHEDPEVKFNWYVDGVEVHNAKTKPREEQYNSTYRVVSVLTVLHQDWLNGKEYKCKVSNKALPAPIEKTISKAKGQPREPQVYTLPPSREEMTKNQVSLTCLVKGFYPSDIAVEWESNGQPENNYKTTPPVLDSDGSFFLYSKLTVDKSRWQQGNVFSCSVMHEALKFHHTQKSLSLSPGK
light: DIQMTQSPSTLSASVGDRVTITCKCQLSVGYMHWYQQKPGKAPKLLIYDTSKLASGVPSRFSGSGSGTEFTLTISSLQPDDFATYYCFQGSGYPFTFGGGTKLEIKRTVAAPSVFIFPPSDEQLKSGTASVVCLLNNFYPREAKVQWKVDNALQSGNSQESVTEQDSKDSTYSLSSTLTLSKADYEKHKVYACEVTHQGLSSPVTKSFNRGEC
As for B10, in the assay with murine FcRn, the Kd was determined as 14 nM and the ΔΔG turned out to be 1.8 kcal/mol.

B11: human IgG1 MEDI-493 (palivizumab) N434F/Y436H (antibody)
heavy: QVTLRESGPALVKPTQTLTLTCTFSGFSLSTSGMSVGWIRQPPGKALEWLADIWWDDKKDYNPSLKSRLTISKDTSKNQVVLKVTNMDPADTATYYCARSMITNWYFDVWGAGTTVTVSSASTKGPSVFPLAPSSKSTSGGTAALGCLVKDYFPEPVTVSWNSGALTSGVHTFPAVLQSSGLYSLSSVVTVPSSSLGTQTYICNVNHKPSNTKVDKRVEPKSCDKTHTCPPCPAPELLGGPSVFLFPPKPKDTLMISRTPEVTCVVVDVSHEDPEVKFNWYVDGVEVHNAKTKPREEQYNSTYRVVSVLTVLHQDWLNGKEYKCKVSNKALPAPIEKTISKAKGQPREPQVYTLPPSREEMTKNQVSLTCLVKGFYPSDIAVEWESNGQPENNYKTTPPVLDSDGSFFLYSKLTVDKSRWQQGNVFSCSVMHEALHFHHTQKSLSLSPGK
light: DIQMTQSPSTLSASVGDRVTITCKCQLSVGYMHWYQQKPGKAPKLLIYDTSKLASGVPSRFSGSGSGTEFTLTISSLQPDDFATYYCFQGSGYPFTFGGGTKLEIKRTVAAPSVFIFPPSDEQLKSGTASVVCLLNNFYPREAKVQWKVDNALQSGNSQESVTEQDSKDSTYSLSSTLTLSKADYEKHKVYACEVTHQGLSSPVTKSFNRGEC
Consider B11, for which, in the assay with murine FcRn, the Kd came to 9 nM and the ΔΔG was 2 kcal/mol.

B12: human IgG1 MEDI-493 (palivizumab) M252Y/T256Q (antibody)
heavy: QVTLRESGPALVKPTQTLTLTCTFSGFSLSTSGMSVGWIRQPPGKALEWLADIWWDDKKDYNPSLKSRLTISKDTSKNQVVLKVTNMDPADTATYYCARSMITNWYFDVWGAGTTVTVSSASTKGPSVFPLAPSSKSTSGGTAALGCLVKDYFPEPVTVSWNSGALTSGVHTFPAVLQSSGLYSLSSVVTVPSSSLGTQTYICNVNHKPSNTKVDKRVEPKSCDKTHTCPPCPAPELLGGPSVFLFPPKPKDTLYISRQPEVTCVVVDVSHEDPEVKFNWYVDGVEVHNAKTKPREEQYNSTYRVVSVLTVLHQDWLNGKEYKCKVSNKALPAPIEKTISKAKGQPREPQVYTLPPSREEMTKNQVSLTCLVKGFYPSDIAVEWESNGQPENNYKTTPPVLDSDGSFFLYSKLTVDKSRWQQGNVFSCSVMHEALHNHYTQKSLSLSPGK
light: DIQMTQSPSTLSASVGDRVTITCKCQLSVGYMHWYQQKPGKAPKLLIYDTSKLASGVPSRFSGSGSGTEFTLTISSLQPDDFATYYCFQGSGYPFTFGGGTKLEIKRTVAAPSVFIFPPSDEQLKSGTASVVCLLNNFYPREAKVQWKVDNALQSGNSQESVTEQDSKDSTYSLSSTLTLSKADYEKHKVYACEVTHQGLSSPVTKSFNRGEC
In the assay with murine FcRn, B12 had a dissociation constant (Kd) of 39 nM and a ΔΔG of 1.1 kcal/mol.

B13: human IgG1 MEDI-493 (palivizumab) M252W (antibody)
heavy: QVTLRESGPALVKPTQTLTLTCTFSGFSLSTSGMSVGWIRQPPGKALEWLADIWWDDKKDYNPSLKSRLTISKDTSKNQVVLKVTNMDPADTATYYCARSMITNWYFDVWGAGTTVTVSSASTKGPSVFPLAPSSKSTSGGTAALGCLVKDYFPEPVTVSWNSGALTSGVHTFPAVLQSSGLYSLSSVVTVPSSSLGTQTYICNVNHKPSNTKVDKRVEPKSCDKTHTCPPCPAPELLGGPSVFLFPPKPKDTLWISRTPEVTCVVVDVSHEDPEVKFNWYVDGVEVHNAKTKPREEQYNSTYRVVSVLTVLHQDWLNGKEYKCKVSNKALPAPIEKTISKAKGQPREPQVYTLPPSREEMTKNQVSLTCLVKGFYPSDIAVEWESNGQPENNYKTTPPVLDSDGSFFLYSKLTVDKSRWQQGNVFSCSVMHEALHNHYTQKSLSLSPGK
light: DIQMTQSPSTLSASVGDRVTITCKCQLSVGYMHWYQQKPGKAPKLLIYDTSKLASGVPSRFSGSGSGTEFTLTISSLQPDDFATYYCFQGSGYPFTFGGGTKLEIKRTVAAPSVFIFPPSDEQLKSGTASVVCLLNNFYPREAKVQWKVDNALQSGNSQESVTEQDSKDSTYSLSSTLTLSKADYEKHKVYACEVTHQGLSSPVTKSFNRGEC
In the assay with murine FcRn, B13 showed a Kd of 30 nM and a ΔΔG of 1.3 kcal/mol.
